# Starred links: 1 amine or outer side, 2 acyl side, 3 side chain; linkers in the order of their positions; H or OH if unused. Non-standard residues stand in square brackets, D forms with d. Groups on a side chain read outwards from the residue. No end group written: not given here. *: point of attachment. C20 diacid = O=C(O)CCCCCCCCCCCCCCCCCCC(=O)*; C18 diacid = O=C(O)CCCCCCCCCCCCCCCCC(=O)*; γGlu = O=C(O)[C@H](CCC(=O)[*:2])N[*:1]; αMeF = C[C@](N)(Cc1ccccc1)C(=O)O; AEEA = NCCOCCOCC(=O)O; Aib = CC(C)(N)C(=O)O
# B1: Peptide 407 (peptide)
# peptide: H[Aib]QGTFTSDVSK[αMeF]LDTK([AEEA-AEEA-γGlu-C20 diacid])RAQDFVRWLEA[Aib]G-OH
# modifications: N-terminus assumed
# SMILES: CC(C)C[C@H](NC(=O)[C@H](Cc1c[nH]c2ccccc12)NC(=O)[C@H](CCCNC(=N)N)NC(=O)[C@@H](NC(=O)[C@H](Cc1ccccc1)NC(=O)[C@H](CC(=O)O)NC(=O)[C@H](CCC(N)=O)NC(=O)[C@H](C)NC(=O)[C@H](CCCNC(=N)N)NC(=O)[C@H](CCCCNC(=O)COCCOCCNC(=O)COCCOCCNC(=O)CC[C@H](NC(=O)CCCCCCCCCCCCCCCCCCC(=O)O)C(=O)O)NC(=O)[C@@H](NC(=O)[C@H](CC(=O)O)NC(=O)[C@H](CC(C)C)NC(=O)[C@](C)(Cc1ccccc1)NC(=O)[C@H](CCCCN)NC(=O)[C@H](CO)NC(=O)[C@@H](NC(=O)[C@H](CC(=O)O)NC(=O)[C@H](CO)NC(=O)[C@@H](NC(=O)[C@H](Cc1ccccc1)NC(=O)[C@@H](NC(=O)CNC(=O)[C@H](CCC(N)=O)NC(=O)C(C)(C)NC(=O)[C@@H](N)Cc1c[nH]cn1)[C@@H](C)O)[C@@H](C)O)C(C)C)[C@@H](C)O)C(C)C)C(=O)N[C@@H](CCC(=O)O)C(=O)N[C@@H](C)C(=O)NC(C)(C)C(=O)NCC(=O)O
# B2: Peptide 408 (peptide)
# peptide: H[Aib]QGTFTSDVSK[αMeF]LDTK([AEEA-AEEA-γGlu-γGlu-C20 diacid])RAQDFVRWLEA[Aib]G-OH
# modifications: N-terminus assumed
# SMILES: CC(C)C[C@H](NC(=O)[C@H](Cc1c[nH]c2ccccc12)NC(=O)[C@H](CCCNC(=N)N)NC(=O)[C@@H](NC(=O)[C@H](Cc1ccccc1)NC(=O)[C@H](CC(=O)O)NC(=O)[C@H](CCC(N)=O)NC(=O)[C@H](C)NC(=O)[C@H](CCCNC(=N)N)NC(=O)[C@H](CCCCNC(=O)COCCOCCNC(=O)COCCOCCNC(=O)CC[C@H](NC(=O)CC[C@H](NC(=O)CCCCCCCCCCCCCCCCCCC(=O)O)C(=O)O)C(=O)O)NC(=O)[C@@H](NC(=O)[C@H](CC(=O)O)NC(=O)[C@H](CC(C)C)NC(=O)[C@](C)(Cc1ccccc1)NC(=O)[C@H](CCCCN)NC(=O)[C@H](CO)NC(=O)[C@@H](NC(=O)[C@H](CC(=O)O)NC(=O)[C@H](CO)NC(=O)[C@@H](NC(=O)[C@H](Cc1ccccc1)NC(=O)[C@@H](NC(=O)CNC(=O)[C@H](CCC(N)=O)NC(=O)C(C)(C)NC(=O)[C@@H](N)Cc1c[nH]cn1)[C@@H](C)O)[C@@H](C)O)C(C)C)[C@@H](C)O)C(C)C)C(=O)N[C@@H](CCC(=O)O)C(=O)N[C@@H](C)C(=O)NC(C)(C)C(=O)NCC(=O)O
# B3: Peptide 409 (peptide)
# peptide: H[Aib]QGTFTSDVSK[αMeF]LDTK([AEEA-AEEA-γGlu-C18 diacid])RARDFVAWLL[Aib]TE-OH
# modifications: N-terminus assumed
# SMILES: CC(C)C[C@H](NC(=O)[C@H](Cc1c[nH]c2ccccc12)NC(=O)[C@H](C)NC(=O)[C@@H](NC(=O)[C@H](Cc1ccccc1)NC(=O)[C@H](CC(=O)O)NC(=O)[C@H](CCCNC(=N)N)NC(=O)[C@H](C)NC(=O)[C@H](CCCNC(=N)N)NC(=O)[C@H](CCCCNC(=O)COCCOCCNC(=O)COCCOCCNC(=O)CC[C@H](NC(=O)CCCCCCCCCCCCCCCCC(=O)O)C(=O)O)NC(=O)[C@@H](NC(=O)[C@H](CC(=O)O)NC(=O)[C@H](CC(C)C)NC(=O)[C@](C)(Cc1ccccc1)NC(=O)[C@H](CCCCN)NC(=O)[C@H](CO)NC(=O)[C@@H](NC(=O)[C@H](CC(=O)O)NC(=O)[C@H](CO)NC(=O)[C@@H](NC(=O)[C@H](Cc1ccccc1)NC(=O)[C@@H](NC(=O)CNC(=O)[C@H](CCC(N)=O)NC(=O)C(C)(C)NC(=O)[C@@H](N)Cc1c[nH]cn1)[C@@H](C)O)[C@@H](C)O)C(C)C)[C@@H](C)O)C(C)C)C(=O)N[C@@H](CC(C)C)C(=O)NC(C)(C)C(=O)N[C@H](C(=O)N[C@@H](CCC(=O)O)C(=O)O)[C@@H](C)O
# B4: Peptide 410 (peptide)
# peptide: H[Aib]QGTFTSDVSK[αMeF]LDTK([AEEA-AEEA-γGlu-C20 diacid])RARDFVAWLL[Aib]TE-OH
# modifications: N-terminus assumed
# SMILES: CC(C)C[C@H](NC(=O)[C@H](Cc1c[nH]c2ccccc12)NC(=O)[C@H](C)NC(=O)[C@@H](NC(=O)[C@H](Cc1ccccc1)NC(=O)[C@H](CC(=O)O)NC(=O)[C@H](CCCNC(=N)N)NC(=O)[C@H](C)NC(=O)[C@H](CCCNC(=N)N)NC(=O)[C@H](CCCCNC(=O)COCCOCCNC(=O)COCCOCCNC(=O)CC[C@H](NC(=O)CCCCCCCCCCCCCCCCCCC(=O)O)C(=O)O)NC(=O)[C@@H](NC(=O)[C@H](CC(=O)O)NC(=O)[C@H](CC(C)C)NC(=O)[C@](C)(Cc1ccccc1)NC(=O)[C@H](CCCCN)NC(=O)[C@H](CO)NC(=O)[C@@H](NC(=O)[C@H](CC(=O)O)NC(=O)[C@H](CO)NC(=O)[C@@H](NC(=O)[C@H](Cc1ccccc1)NC(=O)[C@@H](NC(=O)CNC(=O)[C@H](CCC(N)=O)NC(=O)C(C)(C)NC(=O)[C@@H](N)Cc1c[nH]cn1)[C@@H](C)O)[C@@H](C)O)C(C)C)[C@@H](C)O)C(C)C)C(=O)N[C@@H](CC(C)C)C(=O)NC(C)(C)C(=O)N[C@H](C(=O)N[C@@H](CCC(=O)O)C(=O)O)[C@@H](C)O
# B5: Peptide 461 (peptide)
# peptide: H[Aib]QGTFTSDVSK[αMeF]LDRK([AEEA-AEEA-γGlu-C18 diacid])RAQDFVRWLLAE-NH2
# modifications: N-terminus assumed
# SMILES: CC(C)C[C@H](NC(=O)[C@H](CC(C)C)NC(=O)[C@H](Cc1c[nH]c2ccccc12)NC(=O)[C@H](CCCNC(=N)N)NC(=O)[C@@H](NC(=O)[C@H](Cc1ccccc1)NC(=O)[C@H](CC(=O)O)NC(=O)[C@H](CCC(N)=O)NC(=O)[C@H](C)NC(=O)[C@H](CCCNC(=N)N)NC(=O)[C@H](CCCCNC(=O)COCCOCCNC(=O)COCCOCCNC(=O)CC[C@H](NC(=O)CCCCCCCCCCCCCCCCC(=O)O)C(=O)O)NC(=O)[C@H](CCCNC(=N)N)NC(=O)[C@H](CC(=O)O)NC(=O)[C@H](CC(C)C)NC(=O)[C@](C)(Cc1ccccc1)NC(=O)[C@H](CCCCN)NC(=O)[C@H](CO)NC(=O)[C@@H](NC(=O)[C@H](CC(=O)O)NC(=O)[C@H](CO)NC(=O)[C@@H](NC(=O)[C@H](Cc1ccccc1)NC(=O)[C@@H](NC(=O)CNC(=O)[C@H](CCC(N)=O)NC(=O)C(C)(C)NC(=O)[C@@H](N)Cc1c[nH]cn1)[C@@H](C)O)[C@@H](C)O)C(C)C)C(C)C)C(=O)N[C@@H](C)C(=O)N[C@@H](CCC(=O)O)C(N)=O
# B6: Peptide 463 (peptide)
# peptide: H[Aib]QGTFTSDVSK[αMeF]LDSK([AEEA-AEEA-γGlu-γGlu-C18 diacid])RAQDFVQWLL[Aib]T-NH2
# modifications: N-terminus assumed
# SMILES: CC(C)C[C@H](NC(=O)[C@H](Cc1c[nH]c2ccccc12)NC(=O)[C@H](CCC(N)=O)NC(=O)[C@@H](NC(=O)[C@H](Cc1ccccc1)NC(=O)[C@H](CC(=O)O)NC(=O)[C@H](CCC(N)=O)NC(=O)[C@H](C)NC(=O)[C@H](CCCNC(=N)N)NC(=O)[C@H](CCCCNC(=O)COCCOCCNC(=O)COCCOCCNC(=O)CC[C@H](NC(=O)CC[C@H](NC(=O)CCCCCCCCCCCCCCCCC(=O)O)C(=O)O)C(=O)O)NC(=O)[C@H](CO)NC(=O)[C@H](CC(=O)O)NC(=O)[C@H](CC(C)C)NC(=O)[C@](C)(Cc1ccccc1)NC(=O)[C@H](CCCCN)NC(=O)[C@H](CO)NC(=O)[C@@H](NC(=O)[C@H](CC(=O)O)NC(=O)[C@H](CO)NC(=O)[C@@H](NC(=O)[C@H](Cc1ccccc1)NC(=O)[C@@H](NC(=O)CNC(=O)[C@H](CCC(N)=O)NC(=O)C(C)(C)NC(=O)[C@@H](N)Cc1c[nH]cn1)[C@@H](C)O)[C@@H](C)O)C(C)C)C(C)C)C(=O)N[C@@H](CC(C)C)C(=O)NC(C)(C)C(=O)N[C@H](C(N)=O)[C@@H](C)O
# B7: Peptide 140 (peptide)
# peptide: H[Aib]QGTFTSDVSK[αMeF]LDTK([AEEA-AEEA-γGlu-C18 diacid])RAQDFVRWLLE[Aib]G-OH
# modifications: N-terminus assumed
# SMILES: CC(C)C[C@H](NC(=O)[C@H](Cc1c[nH]c2ccccc12)NC(=O)[C@H](CCCNC(=N)N)NC(=O)[C@@H](NC(=O)[C@H](Cc1ccccc1)NC(=O)[C@H](CC(=O)O)NC(=O)[C@H](CCC(N)=O)NC(=O)[C@H](C)NC(=O)[C@H](CCCNC(=N)N)NC(=O)[C@H](CCCCNC(=O)COCCOCCNC(=O)COCCOCCNC(=O)CC[C@H](NC(=O)CCCCCCCCCCCCCCCCC(=O)O)C(=O)O)NC(=O)[C@@H](NC(=O)[C@H](CC(=O)O)NC(=O)[C@H](CC(C)C)NC(=O)[C@](C)(Cc1ccccc1)NC(=O)[C@H](CCCCN)NC(=O)[C@H](CO)NC(=O)[C@@H](NC(=O)[C@H](CC(=O)O)NC(=O)[C@H](CO)NC(=O)[C@@H](NC(=O)[C@H](Cc1ccccc1)NC(=O)[C@@H](NC(=O)CNC(=O)[C@H](CCC(N)=O)NC(=O)C(C)(C)NC(=O)[C@@H](N)Cc1c[nH]cn1)[C@@H](C)O)[C@@H](C)O)C(C)C)[C@@H](C)O)C(C)C)C(=O)N[C@@H](CC(C)C)C(=O)N[C@@H](CCC(=O)O)C(=O)NC(C)(C)C(=O)NCC(=O)O
# Target: human GLP-1 receptor (hGLP-1R) (human, UniProt P43220 24-463)
# Assay: cell-based or functional assay
row,Binder,hGLP-1R EC50 (pM)
1,B1,209
2,B2,370
3,B3,22.7
4,B4,78
5,B5,167
6,B6,274
7,B7,22.7

# Target: human glucagon receptor (hGCGR) (human, UniProt P47871 26-477)
# Sequence (P47871 26-477): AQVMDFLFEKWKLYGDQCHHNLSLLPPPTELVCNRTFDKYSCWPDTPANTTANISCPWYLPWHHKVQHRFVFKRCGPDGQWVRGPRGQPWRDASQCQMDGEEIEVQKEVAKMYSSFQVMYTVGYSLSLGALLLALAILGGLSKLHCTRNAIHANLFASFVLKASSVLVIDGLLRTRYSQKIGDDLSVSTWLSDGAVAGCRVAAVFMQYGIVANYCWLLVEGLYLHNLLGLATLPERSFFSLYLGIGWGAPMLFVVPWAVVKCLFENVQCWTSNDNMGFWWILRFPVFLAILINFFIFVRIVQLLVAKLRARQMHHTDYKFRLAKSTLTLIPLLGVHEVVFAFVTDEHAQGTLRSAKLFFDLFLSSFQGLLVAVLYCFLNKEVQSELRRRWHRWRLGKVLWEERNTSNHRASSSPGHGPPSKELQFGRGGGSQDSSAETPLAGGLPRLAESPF
# Assay: cell-based or functional assay
row,Binder,hGluc-R EC50 (pM)
1,B1,462
2,B2,828
3,B3,203
4,B4,455
5,H[Aib]QGTFTSDVSK[αMeF]LDTK([AEEA-AEEA-γGlu-γGlu-C20 diacid])RARDFVQWLLE[Aib]G-NH2 [Peptide 458],385

# Source: patent US20230357348A1 (AstraZeneca / MedImmune, published 2023)
